A short description of data set [1]: Storage stability of the L-amino acid oxidase at 4° C. It is filed as physicochemical, Rhodococcus opacus. Conditions: several months; 0.7 mg/mL protein; 50 mM glycine NaOH buffer, pH 8.6; sterile conditions.
A short description of data set [2]: pH dependence of the oxidation process. The data set is classed as biochemical, Rhodococcus opacus. Particulars: 80 mM TEA-HCl buffer; for L-alanine, L-phenylalanine and L-leucine. As to the method: The reaction speed of the oxidation of L-amino acids to keto acids in the presence of the L-amino acid oxidase was studied as a function of the pH in the reaction solution. The test batch (200 μL) had the following composition: 10 mM L-amino acid, 25 U/mL peroxidase from horseradish, 80 mM buffer with different pH values and compositions, 0.2 mg/mL o-dianisidine, enzyme in limiting amount.

Data set [3] can be described thus: Enzyme test of purification fractions with L-ala (o-dianisidine/POX, 450 nm). It is filed as biochemical, Rhodococcus opacus. Particulars: 0.2 M TEA-HCl, pH 7.6, 10 mM L-ala, 30° C. As to the method: The cells were digested by means of wet grinding with glass beads. For this purpose, the moist bacteria mass (15 g) was suspended in 50 mM TEA-HCl buffer (pH 7.0), so that the concentration of the moist cell mass was 25%. The cell content substances were released from the ice-cooled suspension by means of mechanical digestion using a glass bead mill (SCP disintegrator, Innomed-Konsult AB, Sweden). For this purpose, the grinding container was filled with 100 mL glass beads (diameter 0.3 mm) and the cell suspension. Digestion was carried out at a stirring shaft speed of 3,000 rpm. The cooling mantle was filled with ice water before the start of the run.
15 g moist bacteria mass yielded 45 mL crude extract with a volume activity of 0.035 U/mL and a protein content of 9.4 mg/mL. From this, it can be calculated that approximately 150 units L-amino acid oxidase can be obtained from 10 L fermenter batch.
The enzyme can be purified by means of ion exchange chromatography, hydrophobic interaction chromatography, and chromatography with hydroxyl apatite as the column material. The crude extract was pumped onto a column (h 5.5×diameter 5 cm) packed with MarcoPrep High Q Support Material (Biorad, Hercules, USA), at a flow velocity of 0.2 mnL/min. The ion exchanger had previously been equilibrated with a buffer, which contained 50 mM TEA-HCl, pH 7.0. […]

Data set [4] can be described thus: Determination of the isoelectric point by isoelectric focusing. Particulars: carrier ampholytes on agarose, pH range 4-6. It is filed as physicochemical, Rhodococcus opacus. As to the method:
The isoelectric point of the L-amino acid oxidase was determined using isoelectric focusing with carrier ampholytes on agarose, in a pH range of 4-6. The pI is at pH 4.8. Carboanhydrase, β-lactoglobulin, trypsin inhibitor, glucose oxidase were used as marker proteins.

Data set [5] can be described thus: Storage stability of the L-amino acid oxidase as a function of the pH. It is filed as physicochemical, Rhodococcus opacus. Particulars: after 100 hours in glycine NaOH buffer at pH 10 and 10.5; room temperature; 24 μg/mL protein. As to the method: c) Storage Stability of the L-amino Acid Oxidase as a Function of the pH L-amino acid oxidase was incubated in 0.2 M buffer of different compositions, at a protein concentration of 24, μg/mL, at room temperature. Afterwards, the residual activity was determined using 0.2 M TEA buffer, pH 7.6, and 10 mM L-ala. […] After 100 hours in glycine NaOH buffer, it was still possible to detect more than 90% activity at pH 10 and 10.5.

B1: L-amino acid oxidase: L-amino acid oxidase (L-AAO) from Rhodococcus opacus DSM 43250, SEQ ID NO: 2, homogeneously purified (protein, listed as Rhodococcus opacus)
chain: AGDLIGKVKGSHSVVVLGGGPAGLCSAFELQKAGYKVTVLEARTRPGGRVWTARGGSEETDLSGETQKCTFSEGHFYNVGATRIPQSHITLDYCRELGVEIQGFGNQNANTFVNYQSDTSLSGQSVTYRAAKADTFGYMSELLKKATDQGALDQVLSREDKDALSEFLSDFGDLSDDGRYLGSSRRGYDSEPGAGLNFGTEKKPFAMQEVIRSGIGRNFSFDFGYDQAMMMFTPVGGMDRIYYAFQDRIGTDNIVFGAEVTSMKNVSEGVTVEYTAGGSKKSITADYAICTIPPHLVGRLQNNLPGDVLTALKAAKPSSSGKLGIEYSRRWWETEDRIYGGASNTDKDISQIMFPYDHYNSDRGVVVAYYSSGKRQEAFESLTHRQRLAKAIAEGSEIHGEKYTRDISSSFSGSWRRTKYSESAWANWAGSGGSHGGAATPEYEKLLEPVDKIYFAGDHLSNAIAWQHGALTSARDVVTHIHERVAQEA
As to B1, the “storage stability at 4° C.” value in data set [1] was “without any loss of activity”. Also, the pH optimum in data set [2] was found to be 8.5. The “Spec. act. (U/mg)” value is on record as 4.6 U/mg in data set [3] and 4.61 U/mg in data set [3] (listed as Hydroxyl apatite pool). Also, the “isoelectric point (pI)” value in data set [4] is on record as 4.8. For the same molecule, the residual activity result in data set [5] is “more than 90%”.
